Test results reported in patent US11214624.

Target: microtubule (in vitro reconstituted, taxol-stabilised)

B1: HA-tagged wild-type p68 (HA-p68), immunopurified from SW480 cell lysates (protein)
chain: MSGYSSDRDRGRDRGFGAPRFGGSRAGPLSGKKFGNPGEKLVKKKWNLDELPKFEKNFYQEHPDLARRTAQEVETYRRSKEITVRGHNCPKPVLNFYEANFPANVMDVIARQNFTEPTAIQAQGWPVALSGLDMVGVAQTGSGKTLSYLLPAIVHINHQPFLERGDGPICLVLAPTRELAQQVQQVAAEYCRACRLKSTCIYGGAPKGPQIRDLERGVEICIATPGRLIDFLECGKTNLRRTTYLVLDEADRMLDMGFEPQIRKIVDQIRPDRQTLMWSATWPKEVRQLAEDFLKDYIHINIGALELSANHNILQIVDVCHDVEKDEKLIRLMEEIMSEKENKTIVFVETKRRCDELTRKMRRDGWPAMGIHGDKSQQERDWVLNEFKHGKAPILIATDVASRGLDVEDVKFVINYDYPNSSEDYIHRIGRTARSTKTGTAYTFFTPNNIKQVSDLISVLREANQAINPKLLQLVEDRGSGRSRGRGGMKDDRRDRYSAGKRGGFNTFRDRENYDRGYSSLLKRDFGAKTQNGVYSAANYTNGSFGSNFVSAGIQTSFRTGNPTGTYQNGYDSTQQYGSNVPNMHNGMNQQAYAYPATAAAPMIGYPMPTGYSQ
  % of gliding microtubules (n = 50), p68/Ca^2+-CaM, ATP: 74.2%
  % of gliding microtubules (n = 50), p68/Ca^2+-CaM, no ATP: 5.79%
  ATPase activity (inorganic phosphate hydrolyzed from ATP): the protein demonstrated an even stronger microtubule stimulated ATPase activity
  Maximum gliding speed, p68/Ca^2+-CaM, ATP: 0.52 µm/min
  Maximum gliding speed, p68/Ca^2+-CaM, no ATP: 0.01 µm/min
  Mean gliding speed, p68/Ca^2+-CaM, ATP: 0.16 µm/min
  Mean gliding speed, p68/Ca^2+-CaM, no ATP: 0 µm/min
